1 protein from patent US8039586B1, “Cerebral organic anion transporter and its gene” (J-Pharma Co., Ltd., priority 1998, dated 2011) can be followed below.

Substrate in the data set: CN(Cc1cnc2nc(N)nc(N)c2n1)c1ccc(C(=O)N[C@@H](CCC(=O)O)C(=O)O)cc1
The data set is described as follows: cells, lysate or membranes. Particulars: other: transport by hOAT3 in Xenopus oocyte.

B1: hOAT3 (Homo sapiens; D366H/K271E) (protein)
chain: MTFSEILDRVGSMGHFQFLHVAILGLPILNMANHNLLQIFTAATPVHHCRPPHNASTGPWVLPMGPNGKPERCLRFVHPPNASLPNDTQRAMEPCLDGWVYNSTKDSIVTEWDLVCNSNKLKEMAQSIFMAGILIGGLVLGDLSDRFGRRPILTCSYLLLAASGSGAAFSPTFPIYMVFRFLCGFGISGITLSTVILNVEWVPTRMRAIMSTALGYCYTFGQFILPGLAYAIPQWRWLQLTVSIPFFVFFLSSWWTPESIRWLVLSGKSSEALKILRRVAVFNGKKEEGERLSLEELKLNLQKEISLAKAKYTASDLFRIPMLRRMTFCLSLAWFATGFAYYSLAMGVEEFGVNLYILQIIFGGVHVPAKFITILSLSYLGRHTTQAAALLLAGGAILALTFVPLDLQTVRTVLAVFGKGCLSSSFSCLFLYTSELYPTVIRQTGMGVSNLWTRVGSMVSPLVKITGEVQPFIPNIIYGITALLGGSAALFLPETLNQPLPETIEDLENWSLRAKKPKQEPEVEKASQRIPLQPHGPGLGSS
With B1, the Km came to 2.22 µM.
